Series [1] addresses N-cadherin-R14E fluorescent fusion protein (X-dimer mutant). Nature of the series: FRET or BRET; ratiometric FRET (Venus to Cerulean fluorescence over time) at a junction between one Venus- and one Cerulean-expressing living COS7 cell; 100 ms interval for 35 sec; baseline 10-15 sec, then the Ca2+ chelator BAPTA added to 20 mM final.
The target is the same in series [2]. Description: FRET or BRET; acceptor bleach FRET at junctions between living COS7 cells of two mixed populations, one expressing the Venus (acceptor) and the other the Cerulean (donor) copy; trans interaction across the junction; FRET ratio = (IpostDonor - IpreDonor)/IpostDonor. Background: BRET reads energy transfer from a luciferase to a nearby fluorophore.
Series [3] has as its target N-cadherin-V81D/V174D fluorescent fusion protein (cis double mutant). Nature of the series: FRET or BRET; ratiometric FRET (Venus to Cerulean fluorescence over time) at a junction between one Venus- and one Cerulean-expressing living COS7 cell; 100 ms interval for 35 sec; baseline 10-15 sec, then the Ca2+ chelator BAPTA added to 20 mM final.
The target is the same in series [4]. Nature of the series: FRET or BRET; acceptor bleach FRET at junctions between living COS7 cells of two mixed populations, one expressing the Venus (acceptor) and the other the Cerulean (donor) copy; trans interaction across the junction; FRET ratio = (IpostDonor - IpreDonor)/IpostDonor.
The target in series [5] is N-cadherin-W2A fluorescent fusion protein (strand-swap mutant). The description is as above.
The target is the same in series [6]. Description: FRET or BRET; ratiometric FRET (Venus to Cerulean fluorescence over time) at a junction between one Venus- and one Cerulean-expressing living COS7 cell; 100 ms interval for 35 sec; baseline 10-15 sec, then the Ca2+ chelator BAPTA added to 20 mM final.
Series [7] concerns the molecule itself. The description is as above.
Series [8] concerns the molecule itself. Nature of the series: FRET or BRET; acceptor bleach FRET at junctions between living COS7 cells of two mixed populations, one expressing the Venus (acceptor) and the other the Cerulean (donor) copy; trans interaction across the junction; FRET ratio = (IpostDonor - IpreDonor)/IpostDonor.

Regarding “N-cadherin-R14E fluorescent fusion protein (X-dimer mutant) (natural protein)”, in series [1], the ratiometric FRET ratio after 20 mM BAPTA amounted to 98.8% and the ratiometric FRET ratio before BAPTA amounted to 99.2%. Further, the FRET ratio (acceptor bleach) in series [2] was 14%.
Turning to “N-cadherin-V81D/V174D fluorescent fusion protein (cis double mutant) (natural protein)”, in series [3], the ratiometric FRET ratio before BAPTA was found to be 99.6%. Besides, the FRET ratio (acceptor bleach) in series [4] is 22.4%.
Take “N-cadherin-W2A fluorescent fusion protein (strand-swap mutant)”: the FRET ratio (acceptor bleach) in series [5] stood at 29.4%.
On to “N-cadherin-W2A fluorescent fusion protein (strand-swap mutant) (natural protein)”, for which the ratiometric FRET ratio before BAPTA in series [6] stood at 98.6%.

B1: N-cadherin-WT fluorescent fusion protein (N-cadherin-Venus / N-cadherin-Cerulean) (natural protein, UniProt P15116 160-906, looked up)
chain: DWVIPPINLPENSRGPFPQELVRIRSDRDKNLSLRYSVTGPGADQPPTGIFIINPISGQLSVTKPLDRELIARFHLRAHAVDINGNQVENPIDIVINVIDMNDNRPEFLHQVWNGSVPEGSKPGTYVMTVTAIDADDPNALNGMLRYRILSQAPSTPSPNMFTINNETGDIITVAAGLDREKVQQYTLIIQATDMEGNPTYGLSNTATAVITVTDVNDNPPEFTAMTFYGEVPENRVDVIVANLTVTDKDQPHTPAWNAAYRISGGDPTGRFAILTDPNSNDGLVTVVKPIDFETNRMFVLTVAAENQVPLAKGIQHPPQSTATVSVTVIDVNENPYFAPNPKIIRQEEGLHAGTMLTTLTAQDPDRYMQQNIRYTKLSDPANWLKIDPVNGQITTIAVLDRESPNVKNNIYNATFLASDNGIPPMSGTGTLQIYLLDINDNAPQVLPQEAETCETPEPNSINITALDYDIDPNAGPFAFDLPLSPVTIKRNWTINRLNGDFAQLNLKIKFLEAGIYEVPIIITDSGNPPKSNISILRVKVCQCDSNGDCTDVDRIVGAGLGTGAIIAILLCIIILLILVLMFVVWMKRRDKERQAKQLLIDPEDDVRDNILKYDEEGGGEEDQDYDLSQLQQPDTVEPDAIKPVGIRRLDERPIHAEPQYPVRSAAPHPGDIGDFINEGLKAADNDPTAPPYDSLLVFDYEGSGSTAGSLSSLNSSSSGGDQDYDYLNDWGPRFKKLADMYGGGDD
notes: a fluorescent protein is inserted into the second extracellular cadherin repeat at position 151 of the mature protein; numbers count on: the mature protein; Self-association in trans: one cell population expresses the Venus copy (FRET acceptor), the other the Cerulean copy (FRET donor); both are written as this one molecule; also called N-cadherin-Venus-WT; WT-N-cadherin; source: COS7 cells, …
Take B1: in series [7], the “ratiometric FRET ratio after 20 mM BAPTA” value was 89.6% and the “ratiometric FRET ratio before BAPTA” value worked out at 99.6%. The “FRET ratio (acceptor bleach)” value in series [8] is 19.9%.
